{"source": "patent US20130274185A1", "about": "“Pharmaceutical for Pseudo-Exercise Therapy” (THE UNIVERSITY OF TOKYO, priority 2010, published 2013)", "molecules": {"B1": {"name": "adiponectin (protein, UniProt Q60994 1-247, looked up)", "chain": "MLLLQALLFLLILPSHAEDDVTTTEELAPALVPPPKGTCAGWMAGIPGHPGHNGTPGRDGRDGTPGEKGEKGDAGLLGPKGETGDVGMTGAEGPRGFPGTPGRKGEPGEAAYVYRSAFSVGLETRVTVPNVPIRFTKIFYNQQNHYDGSTGKFYCNIPGLYYFSYHITVYMKDVKVSLFKKDKAVLFTYDQYQEKNVDQASGSVLLHLEVGDQVWLQVYGDGDHNGLYADNVNDSTFTGFLLYHDTN", "modifications": "full-length", "notes": "adipokine, internal ligand of adiponectin receptor 1; recombinant murine full-length adiponectin"}}, "key": {"[1]": {"test_system": "CaMKI", "assay": "CaMKI phosphorylation in C2C12 myocytes", "assay_type": "cell-based, mouse", "conditions": "adiponectin 30 μg/ml, 0-20 min", "experimental": "(§1) The mouse C2C12 myoblasts were grown in 90% Dulbecco's modified high glucose Eagle's medium containing 10% (v/v) fetal bovine serum. When the cells reached 80% confluent, the myoblasts were induced to differentiate into myocytes by replacing the medium with a low serum differentiation medium (98% Dulbecco's modified high glucose Eagle's medium, 2.5% (v/v) horse serum). The medium was changed daily. The C2C12 cells were transfected by using Pofectamine 2000 (Invitrogen) and following the manufacturer's instructions."}, "[2]": {"test_system": "C2C12 myocytes", "assay": "Patch clamp test, whole-cell current in C2C12 myocytes", "assay_type": "cell-based, mouse", "conditions": "adiponectin 30 μg/ml 30 sec, holding potential -60 mV", "experimental": "Whole-cell currents were amplified with a patch-clamp amplifier (CEZ-2400; Nihon Kohden) and were digitized with a PowerLab digitizer (AD Instruments). Ringer's solution was used for the extracellular solution. The electrode solution contained 140 mM KCl, 10 mM HEPES, 5 mM EGTA-2K, and 10 mM D-glucose (pH 7.4). The data were low-pass filtered at 2 kHz and were sampled at 20 kHz. Ligands dissolved in Ringer's solution were applied at least twice with a self-made pressure-ejection system and via a two-barreled glass capillary."}, "[3]": {"test_system": "soleus muscle", "assay": "Calcium imaging in skeletal muscle (soleus)", "assay_type": "cell-based, mice", "conditions": "adiponectin 30 μg/ml", "experimental": "From 8-10 weeks-old mice, soleus muscles were dissected. Preparations were treated with 5 μM fura-2/AM in the presence of 0.1% Chremophore EL (Sigma) for 15 min. Fluorescence images were acquired using an inverted fluorescence microscopy (IX71, Olympus) equipped with a cooled charge-coupled device (CCD) camera (iXon, Andor) and a dry objective lens (10×, NA=0.3, Olympus) through a filter set consisting of a 327-353 nm and 369-391 nm excitation filter, a 409 nm dichroic mirror, and a 515-560 nm fluorescent filter. Ligands were supplied using the superfusing Ringer's solution (150 mM NaCl, 4 mM KCl, 2.0 mM CaCl2, 1.0 mM MgCl2, 30 mM D-glucose, 5 mM HEPES (pH 7.4))."}, "[4]": {"test_system": "PGC-1α (Ppargc1a)", "assay": "Ppargc1a mRNA levels in skeletal muscle in vivo", "design": "species or system mice", "conditions": "control littermates; 30 μg per 10 g body weight, 10 min", "experimental": "(§2) Mouse full-length adiponectin was generated as described in the following documents (Nature Med. 8, 1288-1295 (2002); Nature Med. 7, 941-946 (2001); Nature 423, 762-769 (2003)).\nReal-time PCR was carried out according to the method described in the following documents (Nature Med. 13, 332-339 2007); Nature 423, 762-769 (2003); J. Biol. Chem. 281, 8748-8755 (2006)). Total RNA was prepared from cells or tissues by using Trizol (Invitrogen) according to the manufacturer's instructions. Quantification of mRNA was conducted using a real-time PCR method (Nature 423, 762-769 (2003)) with slight modifications. The procedures used for immunoblotting are described in the following documents (Nature Med. 7, 941-946 (2001); J. Biol. Chem. 281, 26602-26614 (2006); J. Biol. Chem. 281, 8748-8755 (2006)). The livers or muscles were freeze-clamped in liquid nitrogen in situ (Nature Med. 7, 941-946 (2001); J. Biol. Chem. 281, 26602-26614 (2006); J. Biol. Chem. 281, 8748-8755 (2006))."}, "[5]": {"test_system": "C2C12 myocytes", "assay": "Mitochondrial content assay in C2C12 myocytes", "assay_type": "cell-based, mouse", "experimental": "as §1\nMitochondrial content assays were carried out as described in the following document (Cell Metab. 4, 75-87 (2006)), with slight modifications. Quantification of the mitochondrial content was conducted by using mtDNA and MitoTracker Green probe (Molecular Probes) according to the method as described in the following document (Obes. Res. 13, 574-581 (2005)). MitoTracker Green probe preferentially accumulates in mitochondria regardless of the mitochondrial membrane potential and provides an accurate assessment of mitochondrial mass. Cells were washed with PBS and after addition of 100 nM MitoTracker Green FM (Molecular Probes), incubated at 37° C. for 30 min. Cells were harvested by using trypsin/EDTA and resuspended in PBS. Fluorescence intensity was detected with excitation and emission wavelengths of 490 and 516 nm, respectively, and the values thus measured were corrected for total protein (mg/ml)."}, "[6]": {"assay": "Plasma adiponectin level after intravenous adiponectin injection", "assay_type": "in vivo, mice", "conditions": "30 μg recombinant murine adiponectin per 10 g body weight, intravenously", "excerpt": "as §2"}, "[7]": {"test_system": "HDAC5", "assay": "HDAC5 phosphorylation in C2C12 myocytes", "assay_type": "cell-based, mouse", "conditions": "adiponectin 30 μg/ml, 0-20 min", "experimental": "as §1"}, "[8]": {"conditions": "C2C12 myocytes, 30 μg/ml adiponectin"}}}
{"molecule": "B1", "values": [{"measurement": "CaMKI phosphorylation", "setting": "[1]", "result": "rapid, robust, and transient increase"}, {"measurement": "whole-cell inward current response", "setting": "[2]", "result": "Inward current responses to adiponectin were observed"}, {"measurement": "intracellular calcium ion concentration in soleus muscle (fura-2)", "setting": "[3]; control mice", "result": "increased the intracellular calcium ion concentration"}, {"measurement": "calcium responses of soleus muscle", "setting": "[3]; muscle-R1KO mice", "result": "almost completely disappeared"}, {"measurement": "expression levels of Ppargc1a in muscle", "setting": "[4]", "result": "increased the expression levels of Ppargc1a in the muscle of control littermates"}, {"measurement": "mitochondrial biogenesis", "setting": "[5]; C2C12 myocytes expressing PGC-1α-R13 mutant", "result": "failed to further induce mitochondrial biogenesis"}, {"measurement": "amount of mitochondria as assessed by MitoTracker green", "setting": "[5]; [8]", "result": "increased"}, {"measurement": "mitochondrial DNA content", "setting": "[5]; [8]", "result": "increased a mitochondrial DNA content"}, {"measurement": "plasma adiponectin levels", "setting": "[6]", "result": "approximately 30 μg/ml"}, {"measurement": "HDAC5 phosphorylation", "setting": "[7]", "result": "increased HDAC5 phosphorylation"}]}
